Measurements as given in US20160264649A1.

Columns and labels:
Assay in all cases: cell-based or functional assay
[1] = molecular target: HIV-1 Env of isolate 92TH021 (subtype AE) (HIV-1)
[2] = molecular target: HIV-1 Env of isolate 92UG031 (subtype A) (HIV-1)
[3] = molecular target: HIV-1 Env of isolate 92UG037 (subtype A) (HIV-1)
[4] = molecular target: HIV-1 Env of isolate 92UG114 (subtype D) (HIV-1)
[5] = molecular target: HIV-1 Env of isolate 92WR009 (subtype A) (HIV-1)
[6] = molecular target: HIV-1 Env of isolate 92WR020 (subtype A) (HIV-1)
[7] = molecular target: HIV-1 Env of isolate 92WR021 (subtype A) (HIV-1)
[8] = molecular target: HIV-1 Env of isolate 92WR024 (subtype A) (HIV-1)
[9] = molecular target: HIV-1 Env of isolate 92WR026 (subtype A) (HIV-1)
[10] = molecular target: HIV-1 Env of isolate 93UG077 (subtype A) (HIV-1)
[11] = molecular target: HIV-1 Env of isolate 93WR029 (subtype A) (HIV-1)
[12] = molecular target: HIV-1 Env of isolate 94 KE 105 (subtype AC) (HIV-1)
[13] = molecular target: HIV-1 Env of isolate 94UG103 (subtype A) (HIV-1)
[14] = molecular target: HIV-1 Env of isolate CMU02 (subtype AE) (HIV-1)
[15] = molecular target: HIV-1 Env of isolate MGRM-AE-001 (subtype AE) (HIV-1)
[16] = molecular target: HIV-1 Env of isolate MGRM-AE-002 (subtype AE) (HIV-1)
[17] = molecular target: HIV-1 Env of isolate MGRM-AE-003 (subtype AE) (HIV-1)
[18] = molecular target: HIV-1 Env of isolate MGRM-AE-004 (subtype AE) (HIV-1)
[19] = molecular target: HIV-1 Env of isolate MGRM-AE-005 (subtype AE) (HIV-1)
[20] = molecular target: HIV-1 Env of isolate MGRM-AE-006 (subtype AE) (HIV-1)
[21] = molecular target: HIV-1 Env of isolate MGRM-AE-007 (subtype AE) (HIV-1)
[22] = molecular target: HIV-1 Env of isolate MGRM-AE-008 (subtype AE) (HIV-1)
[23] = molecular target: HIV-1 Env of isolate MGRM-D-001 (subtype D) (HIV-1)
[24] = molecular target: HIV-1 Env of isolate MGRM-D-002 (subtype D) (HIV-1)
[25] = molecular target: HIV-1 Env of isolate MGRM-D-003 (subtype D) (HIV-1)
[26] = molecular target: HIV-1 Env of isolate MGRM-D-004 (subtype D) (HIV-1)
[27] = molecular target: HIV-1 Env of isolate MGRM-D-005 (subtype D) (HIV-1)
[28] = molecular target: HIV-1 Env of isolate MGRM-D-008 (subtype D) (HIV-1)
[29] = molecular target: HIV-1 Env of isolate MGRM-D-011 (subtype D) (HIV-1)
[30] = molecular target: HIV-1 Env of isolate MGRM-D-012 (subtype D) (HIV-1)
[31] = molecular target: HIV-1 Env of isolate MGRM-D-013 (subtype D) (HIV-1)
[32] = molecular target: HIV-1 Env of isolate MGRM-D-014 (subtype D) (HIV-1)
[33] = molecular target: HIV-1 Env of isolate MGRM-D-016 (subtype D) (HIV-1)
[34] = molecular target: HIV-1 Env of isolate MGRM-D-018 (subtype D) (HIV-1)
[35] = molecular target: HIV-1 Env of isolate MGRM-D-019 (subtype D) (HIV-1)
[36] = molecular target: HIV-1 Env of isolate MGRM-D-020 (subtype D) (HIV-1)
[37] = molecular target: HIV-1 Env of isolate MGRM-D-021 (subtype D) (HIV-1)
[38] = molecular target: HIV-1 Env of isolate MGRM-D-022 (subtype D) (HIV-1)
[39] = molecular target: HIV-1 Env of isolate MGRM-D-024 (subtype D) (HIV-1)
[40] = molecular target: HIV-1 Env of isolate MGRM-D-026 (subtype D) (HIV-1)
[41] = molecular target: HIV-1 Env of isolate MGRM-D-028 (subtype D) (HIV-1)
[42] = molecular target: HIV-1 Env of isolate MGRM-D-029 (subtype D) (HIV-1)
[43] = molecular target: HIV-1 Env of isolate MGRM-F1-004 (subtype F) (HIV-1)
[44] = molecular target: HIV-1 Env of isolate MGRM-F1-006 (subtype F) (HIV-1)
[45] = molecular target: HIV-1 Env of isolate MGRM-F1-008 (subtype F) (HIV-1)
[46] = molecular target: HIV-1 Env of isolate MGRM-F1-010 (subtype F) (HIV-1)
[47] = molecular target: HIV-1 Env of isolate MGRM-F1-012 (subtype F) (HIV-1)
[48] = molecular target: HIV-1 Env of isolate MGRM-F1-013 (subtype F) (HIV-1)
[49] = molecular target: HIV-1 Env of isolate MGRM-F1-014 (subtype F) (HIV-1)
[50] = molecular target: HIV-1 Env of isolate MGRM-F1-015 (subtype F) (HIV-1)
[51] = molecular target: HIV-1 Env of isolate MGRM-F1-016 (subtype F) (HIV-1)
[52] = molecular target: HIV-1 Env of isolate MGRM-F1-017 (subtype F) (HIV-1)
[53] = molecular target: HIV-1 Env of isolate MGRM-F1-018 (subtype F) (HIV-1)
[54] = molecular target: HIV-1 Env of isolate MGRM-F1-020 (subtype F) (HIV-1)
[55] = molecular target: HIV-1 Env of isolate MGRM-F1-021 (subtype F) (HIV-1)
[56] = molecular target: HIV-1 Env of isolate MGRM-F1-022 (subtype F) (HIV-1)
[57] = molecular target: HIV-1 Env of isolate MGRM-F1-023 (subtype F) (HIV-1)
[58] = molecular target: HIV-1 Env of isolate VLGCA1 (subtype A) (HIV-1)

PGT-144 (4970_K22) (antibody), sequence (VH): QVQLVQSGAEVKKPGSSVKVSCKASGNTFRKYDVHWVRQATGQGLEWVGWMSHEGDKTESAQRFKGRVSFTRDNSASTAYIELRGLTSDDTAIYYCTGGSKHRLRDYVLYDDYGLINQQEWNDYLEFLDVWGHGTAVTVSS
PGT-144 (4970_K22) (antibody), sequence (VL): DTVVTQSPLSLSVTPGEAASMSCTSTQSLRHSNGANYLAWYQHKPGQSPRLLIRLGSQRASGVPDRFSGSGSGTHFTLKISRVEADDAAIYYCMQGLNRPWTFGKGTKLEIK

## PGT-144 (4970_K22) (antibody)
[1]
  IC50 (pseudovirus neutralization): 0.052 µg/mL
[2]
  IC50 (pseudovirus neutralization): 2.17 µg/mL
[3]
  IC50 (pseudovirus neutralization): 8.24 µg/mL
[4]
  IC50 (pseudovirus neutralization): > 50 µg/mL
[5]
  IC50 (pseudovirus neutralization): 0.893 µg/mL
[6]
  IC50 (pseudovirus neutralization): > 50 µg/mL
[7]
  IC50 (pseudovirus neutralization): > 50 µg/mL
[8]
  IC50 (pseudovirus neutralization): 16.3 µg/mL
[9]
  IC50 (pseudovirus neutralization): 32.7 µg/mL
[10]
  IC50 (pseudovirus neutralization): > 50 µg/mL
[11]
  IC50 (pseudovirus neutralization): 4.39 µg/mL
[12]
  IC50 (pseudovirus neutralization): 0.29 µg/mL
[13]
  IC50 (pseudovirus neutralization): > 50 µg/mL
[14]
  IC50 (pseudovirus neutralization): > 50 µg/mL
[15]
  IC50 (pseudovirus neutralization): > 50 µg/mL
[16]
  IC50 (pseudovirus neutralization): > 50 µg/mL
[17]
  IC50 (pseudovirus neutralization): > 50 µg/mL
[18]
  IC50 (pseudovirus neutralization): 0.104 µg/mL
[19]
  IC50 (pseudovirus neutralization): > 50 µg/mL
[20]
  IC50 (pseudovirus neutralization): > 50 µg/mL
[21]
  IC50 (pseudovirus neutralization): > 50 µg/mL
[22]
  IC50 (pseudovirus neutralization): 3.55 µg/mL
[23]
  IC50 (pseudovirus neutralization): > 50 µg/mL
[24]
  IC50 (pseudovirus neutralization): > 50 µg/mL
[25]
  IC50 (pseudovirus neutralization): > 50 µg/mL
[26]
  IC50 (pseudovirus neutralization): > 50 µg/mL
[27]
  IC50 (pseudovirus neutralization): 14.8 µg/mL
[28]
  IC50 (pseudovirus neutralization): 9.85 µg/mL
[29]
  IC50 (pseudovirus neutralization): > 50 µg/mL
[30]
  IC50 (pseudovirus neutralization): > 50 µg/mL
[31]
  IC50 (pseudovirus neutralization): > 50 µg/mL
[32]
  IC50 (pseudovirus neutralization): 0.113 µg/mL
[33]
  IC50 (pseudovirus neutralization): > 50 µg/mL
[34]
  IC50 (pseudovirus neutralization): > 50 µg/mL
[35]
  IC50 (pseudovirus neutralization): > 50 µg/mL
[36]
  IC50 (pseudovirus neutralization): > 50 µg/mL
[37]
  IC50 (pseudovirus neutralization): > 50 µg/mL
[38]
  IC50 (pseudovirus neutralization): > 50 µg/mL
[39]
  IC50 (pseudovirus neutralization): > 50 µg/mL
[40]
  IC50 (pseudovirus neutralization): > 50 µg/mL
[41]
  IC50 (pseudovirus neutralization): > 50 µg/mL
[42]
  IC50 (pseudovirus neutralization): 0.459 µg/mL
[43]
  IC50 (pseudovirus neutralization): 0.105 µg/mL
[44]
  IC50 (pseudovirus neutralization): 20.6 µg/mL
[45]
  IC50 (pseudovirus neutralization): 0.507 µg/mL
[46]
  IC50 (pseudovirus neutralization): > 50 µg/mL
[47]
  IC50 (pseudovirus neutralization): > 50 µg/mL
[48]
  IC50 (pseudovirus neutralization): 0.509 µg/mL
[49]
  IC50 (pseudovirus neutralization): 0.014 µg/mL
[50]
  IC50 (pseudovirus neutralization): > 50 µg/mL
[51]
  IC50 (pseudovirus neutralization): > 50 µg/mL
[52]
  IC50 (pseudovirus neutralization): > 50 µg/mL
[53]
  IC50 (pseudovirus neutralization): > 50 µg/mL
[54]
  IC50 (pseudovirus neutralization): 8.93 µg/mL
[55]
  IC50 (pseudovirus neutralization): > 50 µg/mL
[56]
  IC50 (pseudovirus neutralization): 0.382 µg/mL
[57]
  IC50 (pseudovirus neutralization): 1.16 µg/mL
[58]
  IC50 (pseudovirus neutralization): > 50 µg/mL
